Laboratory results published in PMC9097460, “The molecular basis of spinocerebellar ataxia type 48 caused by a de novo mutation in the ubiquitin ligase CHIP” (The Journal of Biological Chemistry, 2022).

Target: the molecule itself
Test: SEC + other: mass photometry; recombinant CHIP run on size-exclusion chromatography, fractions analysed by mass photometry at 30 nM in 20 mM Hepes pH 8, 200 mM NaCl, 1 mM DTT

B1: CHIP A52G point mutant, recombinant (enzyme, human, UniProt Q9UNE7 1-303, looked up)
chain: MKGKEEKEGGARLGAGGGSPEKSPSAQELKEQGNRLFVGRKYPEAAACYGRGITRNPLVAVYYTNRALCYLKMQQHEQALADCRRALELDGQSVKAHFFLGQCQLEMESYDEAIANLQRAYSLAKEQRLNFGDDIPSALRIAKKKRWNSIEERRIHQESELHSYLSRLIAAERERELEECQRNHEGDEDDSHVRAQQACIEAKHDKYMADMDELFSQVDEKRKKRDIPDYLCGKISFELMREPCITPSGITYDRKDIEEHLQRVGHFDPVTRSPLTQEQLIPNLAMKEVIDAFISENGWVEDY
notes: CHIP (STUB1 product) with the patient's de novo A52G mutation (c.155C > G), introduced by QuikChange into the pGEX6p-1 construct; Mutation found in a patient with SCA48; also called A52G mutant; source: E. coli, purified
  binding result: binds
